Patent US20110293610A1 (published 2011)

T1: TNF-beta (human, UniProt P01374 35-205)
T1 construct: also called TNFβ; Tumour Necrosis Factor-beta
T1 sequence (looked up): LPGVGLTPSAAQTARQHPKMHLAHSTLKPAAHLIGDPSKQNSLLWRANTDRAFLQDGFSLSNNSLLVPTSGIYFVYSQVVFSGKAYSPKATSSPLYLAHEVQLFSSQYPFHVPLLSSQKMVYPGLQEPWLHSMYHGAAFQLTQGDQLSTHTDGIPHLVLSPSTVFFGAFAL


Legend:
Assay in all cases: phage ELISA
[1] = target: T2, B Lymphocyte Stimulator, soluble form (human) (human, UniProt Q9Y275 134-285, biotinylated with NHS-biotin where used as biotinylated B Lymphocyte Stimulator)
T2 construct: Coated on plastic, captured on streptavidin plates, amine-coupled to a CM5 chip or free in solution, depending on the assay; also called BLyS; immobilized B Lymphocyte Stimulator

[2] = target: T3, TNF-alpha (human, UniProt P01375 77-233)
T3 construct: also called TNFα; TNF-α
T3 sequence (P01375 77-233 limits assumed): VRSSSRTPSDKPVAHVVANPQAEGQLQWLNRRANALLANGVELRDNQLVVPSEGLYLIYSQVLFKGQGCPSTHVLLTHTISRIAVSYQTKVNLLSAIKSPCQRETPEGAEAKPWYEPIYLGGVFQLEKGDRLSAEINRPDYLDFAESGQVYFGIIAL

[3] = target: LIGHT (human, UniProt O43557 74-240, limits assumed)
Chain of LIGHT (O43557 74-240 limits assumed): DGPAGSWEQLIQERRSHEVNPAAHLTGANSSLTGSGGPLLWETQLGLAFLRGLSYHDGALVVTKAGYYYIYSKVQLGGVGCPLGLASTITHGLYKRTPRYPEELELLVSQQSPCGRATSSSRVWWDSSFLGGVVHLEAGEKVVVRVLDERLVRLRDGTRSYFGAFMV

[4] = target: T4, TRAIL (human, UniProt P50591 114-281)
T4 construct: also called TNF-related apoptosis inducing ligand
T4 sequence (P50591 114-281 limits assumed): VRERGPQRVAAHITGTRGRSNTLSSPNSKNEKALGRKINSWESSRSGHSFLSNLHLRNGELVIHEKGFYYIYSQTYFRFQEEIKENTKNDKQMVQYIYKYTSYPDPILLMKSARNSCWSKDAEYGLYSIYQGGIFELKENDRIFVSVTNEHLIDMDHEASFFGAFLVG

[5] = target: T1, TNF-beta

Row | Binder | binding result [1] | binding result [2] | binding result [3] | binding result [4] | binding result [5]
1 | I064C07 (scFv) scFv: QVQLVQSGAEVKKPGSSVKVSCKASGGTFSSYAISWVRQAPGQGLEWMGGIIPIFGTANYAQKFQGRVTITADDLTRTAYMEMSSLKFEDTAVYYCASSEGTIFGVDWGRGTLVTVSSGGGGSGGGGSGGGGSDIQMTQSPSFLSASVGDRVTITCRASQGINNYLAWYQQKPGRAPKLLMYAASSLQSGVPSRFSGSGSGTDFTLTISSLQPEDFATYYCLQDSDYPLTFGGGTKLEIKR | binds | no binding | no binding | no binding | no binding
2 | I002A01-R (scFv) scFv: QVQLVQSGAEVKKPGSSVKVSCRASGGSFNRHAISWVRQAPGRGLEWMGGILPMYGTANYAQKFQGRVTITADKLTNTVYMDLSRLRYEDTAVYYCARELGLSIVGATTGALDMWGKGTLVTVSSGGGGSGGGGSGGGGSALPVLTQPPSVSVAPGQTATLTCGGTNFGRQSVHWYQQKPGQAPVLAIYHDDVRPSGIPERLSGSKSGNTATLTISRVEAGDEAAYYCQVWDSGSDVVVFGGGTKLTVLG | binds | no binding | no binding | no binding | no binding
3 | I075G01 (scFv) scFv: QVQLVQSGAEVKKPGASVKVSCKTSGYTFTGYNINWVRQAPGQGLEWMGWVSPSNGDTSYAQTFQGRVTMTRDTSISTAYMELSSLKSDDTAVYYCARDHFDTLTGYFRRLDSWGQGTLVTVSSGGGGSGGGGSGGGGSALSSELTQDPEVSVALGQTVTITCQGDSLITHYASWFQQKPGQAPLLVFYSKDKRPSGIPDRFSGSYSGNTASLTITGAQAEDEADYYCNSRDSRGKNHVAFGGGTKLTVLG | binds | no binding | no binding | no binding | no binding
4 | I065F08 (scFv) scFv: QVQLQQSGAEVKKPGSSVKVSCKASGDTFSSFGISWVRQVPGQGLEWMGAIIPKFDIVTYAEEFKGRVTISADKLTNTAYMEVKSLRSEDTAVYYCTREKSAAGYFDYWGKGTLVTVSSGGGGSGGGGSGGGGSDIVMTQSPSTLSASVGDRVTITCRASQGISSWLAWYQQKPGRAPKVLIYKASTLESGVPSRFSGSGSGTDFTLTISSLQPEDFATYYCQQSYSTPWTFGQGTKLEIKR | binds | no binding | no binding | no binding | no binding
5 | I078D08 (scFv) scFv: QVNLRESGGGLVQPGGSLRLSCAASGFTFSSYWMSWVRQAPGKGLEWVANIKQDGSEKYYVDSVKGRFTISRDNSKNTLYLQMNSLRAEDTAVYYCARDAQSYYDILTGYQSYAFDIWGQGTTVTVSSGGGGSGGGGSGGGGSSELTQDPAVSVALGQTVRITCQGDSLRSYYTNWFQQKPGQAPLLVVYAKNKRPSGIPDRFSGSSSGNTASLTITGAQAEDEADYYCHSRDSSGNHVLFGGGTKLTVLG | binds | no binding | no binding | no binding | no binding
6 | I068B04 (scFv) scFv: QVQLVQSGAEVKKPGSSVKVSCKASGGTVSSRTISWVRQAPGQGLEWMGGSLPPSGAPIYAQKFQGRVAITADALTNTAFMELRSLKSDDTAVYYCARDQGRYLDLWGRGTLVTVSSGGGGSGGGGSGGGGSALPVLTQPPSASATPGQRVTISCSGSSSNIGSNYVYWYQQLPGTAPKVLIYRNNQRPSGVPDRFSGSRSGTSASLAISGLRSEDEADYYCATWDDSLSGPVFGGGTKVTVLG | binds | no binding | no binding | no binding | no binding
7 | I065D04 (scFv) scFv: QVQLQESGPGLVKPSETLSLTCTVSGGSISSGYYWGWVRQPPGQGLEWIGSIYHSGSTYHNPSLKSRVTISMDTSKNQFSLNLNSVTAADTAVYYCARGKGYYDILTGYYRDNWFDPWGRGTLVTVSSGGGGSGGGGSGGGGSQSVLTQPASVSGSPGQSITISCTGTSSDVGGYNYVSWYQQHPGKAPKLMIYEGSKRPSGVSNRFSGSKSGNTASLTISGLQAEDEADYYCSSYTTRSTRVFGGGTKLTVLG | binds | no binding | no binding | no binding | no binding
8 | I072B09 (scFv) scFv: QVQLQQSGAEVKKPGASVKVSCRASGYTFTKYTMHWVRQAPGQGPEWMGWINGGSGDTKYSRKFQGRVTITKDTSASAAYMELSSLGSEDTALYYCARATYDPLTGYSFDGFDIWGQGTLVTVSSGGGGSGGGGSGGGGSSELTQDPAVSVALGQTVRITCQGDSLRSYYTNWFQQKPGQAPLLVVYAKNKRPSGIPDRFSGSSSGNTASLTITGAQAEDEADYYCNSRDSSGNHVVFGGGTKLTVLD | binds | no binding | no binding | no binding | no binding
9 | I064C04 (scFv) scFv: QVQLVQSGAEVKKPGASVKVSCEASGYTFTSYGISWVRQAPGQGLEWMGWISTYNGNTRYPQKLQGRVTMTTDTSTSTAYMDLRSLRSDDTAVYYCARDGRLSYDILTGYYARDYYGMDDWGRGTMVTVSSGGGGSGGGGSGGGGSQSVLTQPASVSGSPGQSITISCTGTSSDVGGYNYVSWYQQHPGKAPKLMIYEGSKRPSGVSNRFSGSKSGNTASLTISGLQAEDEADYYCSSYTTRSTRVFGGGTKLTVLG | binds | no binding | no binding | no binding | no binding

Continued, values first:

Row | binding result [1] | binding result [2] | binding result [3] | binding result [4] | binding result [5] | Binder
10 | binds | no binding | no binding | no binding | no binding | I002A01-K (scFv) scFv: QVQLVQSGAEVKKPGSSVKVSCRASGGSFNKHAISWVRQAPGRGLEWMGGILPMYGTANYAQKFQGRVTITADKLTNTVYMDLSRLRYEDTAVYYCARELGLSIVGATTGALDMWGKGTLVTVSSGGGGSGGGGSGGGGSALPVLTQPPSVSVAPGQTATLTCGGTNFGRQSVHWYQQKPGQAPVLAIYHDDVRPSGIPERLSGSKSGNTATLTISRVEAGDEAAYYCQVWDSGSDVVVFGGGTKLTVLG
11 | binds | no binding | no binding | no binding | no binding | I067B10 (scFv) scFv: QMQLVQSGAEVKKPGASVKVSCKASGYTFTSYYMHWVRQAPGQGLEWMGWINAGNSNTKYSQKFQGRVTITSDTSASTAYMELSGLRSEDTAVYYCARDRGAPNYDILTGYYAPAQGVAFDIWGKGTLATVSSGGGGSGGGGSGGGGSQSVLTQPPSVSAAPGQKVTISCSGSTSNIGNNYVSWYQQHPGKAPKLMIYDVSKRPSGVPDRFSGSKSGNSASLDISGLQSEDEADYYCAAWDDSLSEFLFGTGTKLTVLG
12 | binds | no binding | no binding | no binding | no binding | I026C04-R (scFv) scFv: QVQLVQSGAEVKKPGSSVKVSCRASGGSFNRHAISWVRQAPGRGLEWMGGILPMYGTANYAQKFQGRVTITADKLTNTVYMDLSRLRYEDTAVYYCARELGLSIVGATTGALDMWGKGTLVTVSSGGGGSGGGGSGGGGSAQSVLTQPPSVSAAPGQKVTISCSGSSSNIGNNYVSWYQQIPGTAPKLLIYENNKRPSGIPDRFSGSKSGASATLDITGLQTGDEADYYCGTWHSSQVVFGGGTKLTVLG
13 | binds | no binding | no binding | no binding | no binding | I065D08 (scFv) scFv: GVQLVQSGAEVKKPGASVKVSCKASGYTFTSYGISWVRQAPGQGLEWMGWISAYNGNTNYAQKLQGRVTMTTDTSTSTAYMELRSLRSDDTAVYYCARTPSSVYDLLTGYYHYFYSYMDVWGRGTMVTVSSGGGGSGGGGSGGGGSQSVLTQPASVSGSPGQSITISCTGTSSDVGGYNYVSWYQQHPGEAPKLMIYEGSKRPSGVSNRFSGSKSGNTASLTISGLQAEDEADYYCSSYTTRSTRVFGGGTKLTVLG
14 | binds | no binding | no binding | no binding | no binding | I073F04 (scFv) scFv: QVQLQQSGAEVKKPGSSVKVSCKASGGTFRSYAFSWVRQAPGQGLEWMGYIVPVFGTATYAQNFQGRVTITADELTTTAFMELSSLTSEDTAVYYCARSLATRPLGMDVWGRGTTVTVSSGGGGSGGGGSGGGGSQSVLTQPASVSGSPGQSITISCTGTSSDVGGYNYVSWYQQHPGKAPKLMIYEGSKRPSGVSNRFSGSKSGNTASLTISGLQAEDEADYYCSSYTTRSTRVFGGGTKLTVLG
